Positions count from the first letter of the chain named.
B1: SR-AB22 (antibody, IgG1, V domains shown)
VH: QVQLVESGGGVVQPGRSLRLSCAASGFTFRSYVMHWVRQAPGKGLEWVAVISHEGSLKYYADSVKGRFTISRDNSKNTLYLQMNSLRAEDTAVYYCAVPRIAARRGGFGYWGQGTLVTVSS
VL: NFMLTQPHSVSESPGKTVTISCTRSSGNIDNNYVQWYQQRPGSSPTTVIYEDNQRPSGVPDRFSGSIDSSSNSASLTISGLKTEDEADYYCQSYDSDNQGVVFGGGTKLTVL
B2: SR-AB47-HuFab (Fab, V domains shown)
VH: B1 VH with L57G, V98R, Y110S
VL: B1 VL with N31Y, Q54V, S96Y, G100A
B3: SR-AB55-HuFab (Fab, V domains shown)
VH: B1 VH with L57G, V98L, Y110S
VL: B1 VL with N31Y, Q54V, S96Y, G100A
B4: SR-AB56-HuFab (Fab, V domains shown)
VH: B1 VH with L57G, V98L, Y110S
VL: B1 VL with N31Y, Q54V, S96Y, N98T
B5: SR-AB60-HuFab (Fab, V domains shown)
VH: B1 VH with L57G, V98L, Y110T
VL: B1 VL with N31Y, Q54V, S96Y, N98T
B6: SR-AB50-HuFab (Fab, V domains shown)
VH: B1 VH with L57G, V98R, Y110T
VL: B1 VL with N31Y, Q54V, G100R
B7: SR-AB59-HuFab (Fab, V domains shown)
VH: B1 VH with L57G, V98L, Y110T
VL: B1 VL with N31Y, Q54V, S96Y, G100A
B8: SR-AB58-HuFab (Fab, V domains shown)
VH: B1 VH with L57G, V98L, Y110T
VL: B1 VL with N31Y, Q54V, G100R
B9: SR-AB48-HuFab (Fab, V domains shown)
VH: B1 VH with L57G, V98R, Y110S
VL: B1 VL with N31Y, Q54V, S96Y, N98T
B10: SR-AB46-HuFab (Fab, V domains shown)
VH: B1 VH with L57G, V98R, Y110S
VL: B1 VL with N31Y, Q54V, G100R
B11: SR-AB43-HuFab (Fab, V domains shown)
VH: B1 VH with V98R
VL: B1 VL with N31Y, Q54V, G100R
B12: SR-AB57-HuFab (Fab, V domains shown)
VH: B1 VH with L57G, V98L, Y110S
VL: B1 VL with N31Y, Q54V, S93G, S96W, N98T
B13: SR-AB52-HuFab (Fab, V domains shown)
VH: B1 VH with L57G, V98R, Y110T
VL: B1 VL with N31Y, Q54V, S96Y, N98T
B14: SR-AB53-HuFab (Fab, V domains shown)
VH: B1 VH with L57G, V98R, Y110T
VL: B1 VL with N31Y, Q54V, S93G, S96W, N98T
B15: SR-AB51-HuFab (Fab, V domains shown)
VH: B1 VH with L57G, V98R, Y110T
VL: B1 VL with N31Y, Q54V, S96Y, G100A
B16: SR-AB54-HuFab (Fab, V domains shown)
VH: B1 VH with L57G, V98L, Y110S
VL: B1 VL with N31Y, Q54V, G100R
B17: SR-AB23 Fab (Fab, V domains shown)
VH: B1 VH with V98R
VL: B1 VL
B18: SR-AB42-HuFab (Fab, V domains shown)
VH: B1 VH with V98R
VL: B1 VL with S96Y, N98T
B19: SR-AB41 Fab (Fab, V domains shown)
VH: B1 VH with V98R
VL: B1 VL with S96Y, G100A
B20: SR-AB61-HuFab (Fab, V domains shown)
VH: B1 VH with L57G, V98L, Y110T
VL: B1 VL with N31Y, Q54V, S93G, S96W, N98T
B21: SR-AB49-HuFab (Fab, V domains shown)
VH: B1 VH with L57G, V98R, Y110S
VL: B1 VL with N31Y, Q54V, S93G, S96W, N98T

target: human LRRC33-proTGFβ1 complex (human) (UniProt Q86YC3); test: Octet, antibody immobilized
Sequence (Q86YC3 19-650 limits assumed, chain 1 of 2): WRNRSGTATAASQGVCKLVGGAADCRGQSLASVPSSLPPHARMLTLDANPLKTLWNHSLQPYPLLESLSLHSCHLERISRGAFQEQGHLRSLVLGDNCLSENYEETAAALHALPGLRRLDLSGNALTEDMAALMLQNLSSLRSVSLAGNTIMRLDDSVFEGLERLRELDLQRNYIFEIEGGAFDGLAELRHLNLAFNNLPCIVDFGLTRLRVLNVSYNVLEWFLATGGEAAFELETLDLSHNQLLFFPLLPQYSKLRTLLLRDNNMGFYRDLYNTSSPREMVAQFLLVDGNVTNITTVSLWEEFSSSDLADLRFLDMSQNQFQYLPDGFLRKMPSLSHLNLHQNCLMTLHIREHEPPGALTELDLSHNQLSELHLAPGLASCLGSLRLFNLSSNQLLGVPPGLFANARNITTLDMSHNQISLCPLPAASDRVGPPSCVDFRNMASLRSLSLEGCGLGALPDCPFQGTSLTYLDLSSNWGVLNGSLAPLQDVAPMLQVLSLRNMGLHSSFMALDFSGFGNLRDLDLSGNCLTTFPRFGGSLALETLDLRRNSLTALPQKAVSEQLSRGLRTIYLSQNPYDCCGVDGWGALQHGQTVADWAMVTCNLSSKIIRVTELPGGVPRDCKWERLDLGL
Sequence (chain, as listed by the source limits assumed, chain 2 of 2): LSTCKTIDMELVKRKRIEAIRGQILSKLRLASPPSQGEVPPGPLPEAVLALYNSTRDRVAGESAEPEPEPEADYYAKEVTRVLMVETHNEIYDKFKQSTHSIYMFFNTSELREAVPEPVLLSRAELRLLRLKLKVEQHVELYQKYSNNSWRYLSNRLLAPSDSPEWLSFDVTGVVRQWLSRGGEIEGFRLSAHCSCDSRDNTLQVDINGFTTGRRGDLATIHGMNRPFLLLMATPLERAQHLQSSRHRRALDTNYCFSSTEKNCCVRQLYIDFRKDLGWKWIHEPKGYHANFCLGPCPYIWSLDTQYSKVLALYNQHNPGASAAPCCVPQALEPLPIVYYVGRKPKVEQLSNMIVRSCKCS

Binder B1 has a Response (nm) of 0.133 nm.

target: LTBP-proTGFβ1 in the LN229 CAGA12 assay of Table 20 (endogenous or over-expressed murine LTBP1 not stated); test: cell-based or functional assay

Going from B2 to B3, the IC50 (CAGA12 luciferase) rises from 0.186 nM to 0.536 nM (2.9-fold).

Compared with B4, B5 is 1.7-fold higher in IC50 (CAGA12 luciferase): 0.439 nM for the first, 0.742 nM for the second.

Going from B6 to B7, the IC50 (CAGA12 luciferase) falls from 11 nM to 0.195 nM (56-fold).

Going from B8 to B9, the IC50 (CAGA12 luciferase) falls from 4.86 nM to 0.523 nM (9.3-fold).

Compared with B10, B11 is 2.2-fold higher in IC50 (CAGA12 luciferase): 0.495 nM for the first, 1.08 nM for the second.

First: B12
Second: B13
The IC50 (CAGA12 luciferase) of the first is 1.7-fold higher: 0.775 nM for the first, 0.459 nM for the second.

Going from B14 to B15, the IC50 (CAGA12 luciferase) falls from 1.18 nM to 0.535 nM (2.2-fold).

B16 and B17 are within 1.5-fold of each other in IC50 (CAGA12 luciferase): 5.87 nM for the first, 8.53 nM for the second.

B18 and B19 are within 1.5-fold of each other in IC50 (CAGA12 luciferase): 0.667 nM for the first, 0.486 nM for the second.

First: B20
Second: B21
The IC50 (CAGA12 luciferase) of the first is 2.2-fold lower: 0.47 nM for the first, 1.02 nM for the second.
